B1: Biotin-RNA5 (A24 2'-MOE) (XNA)
strand: AAAAAAAAAAAAAAAAAAAAAAAA
modifications: 2'-O-methoxyethyl A, about 50% by design (positions in Table S2/Fig. 3A not in material)
B2: Biotin-RNA3 (A24 DNA) (XNA)
strand: AAAAAAAAAAAAAAAAAAAAAAAA
modifications: 2'-deoxy A substitutions, about 50% by design (positions in Table S2/Fig. 3A not in material)

molecular target: PABP (hPABPC1) (human, UniProt P11940 1-636); assay: SPR
Sequence (P11940 whole entry): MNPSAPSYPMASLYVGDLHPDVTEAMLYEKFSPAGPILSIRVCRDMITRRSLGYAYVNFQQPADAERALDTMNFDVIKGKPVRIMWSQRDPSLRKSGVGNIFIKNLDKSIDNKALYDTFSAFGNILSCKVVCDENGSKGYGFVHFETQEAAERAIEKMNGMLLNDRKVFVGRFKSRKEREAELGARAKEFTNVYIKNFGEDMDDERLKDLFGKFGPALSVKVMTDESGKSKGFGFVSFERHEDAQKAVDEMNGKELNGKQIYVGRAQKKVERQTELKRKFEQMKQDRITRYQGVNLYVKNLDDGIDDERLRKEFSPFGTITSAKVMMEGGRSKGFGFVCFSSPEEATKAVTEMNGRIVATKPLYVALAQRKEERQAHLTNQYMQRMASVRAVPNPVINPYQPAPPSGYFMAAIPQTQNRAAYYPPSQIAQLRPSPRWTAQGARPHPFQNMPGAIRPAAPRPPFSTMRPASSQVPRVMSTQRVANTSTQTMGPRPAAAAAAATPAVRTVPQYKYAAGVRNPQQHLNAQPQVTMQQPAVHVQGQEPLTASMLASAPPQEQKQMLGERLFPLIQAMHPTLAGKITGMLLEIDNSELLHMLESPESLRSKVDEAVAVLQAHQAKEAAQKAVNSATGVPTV

Binding result, no binding:
AAAAAAAAAAAAAAAAAAAAAAAA (XNA, 2'-O-methyl A, 50% substitution (positions in Table S2/Fig. 3A not in material)) [Biotin-RNA4 (A24 2'-OMe)]
AAAAAAAAAAAAAAAAAAAAAAAA (XNA, 2'-fluoro A, 50% substitution (positions in Table S2/Fig. 3A not in material)) [Biotin-RNA6 (A24 2'-F)]
B1
B2
ACUGCGCUGAUUUUUUUUUUUUUUUUUUUUUUUUUUUUUUUUUUUUUUUU (ssRNA) [Biotin-RNA8 (U40)]
